We go through eight substances from patent US20190212291.

One data set relates to T1, PB2.
T1 sequence: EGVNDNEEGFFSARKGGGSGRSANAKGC

A further data set relates to T2, PEG-T39-Q.
T2 sequence: GGGSGRSANAKGKGC

Sequence of MMP9 (chain, as listed by the source): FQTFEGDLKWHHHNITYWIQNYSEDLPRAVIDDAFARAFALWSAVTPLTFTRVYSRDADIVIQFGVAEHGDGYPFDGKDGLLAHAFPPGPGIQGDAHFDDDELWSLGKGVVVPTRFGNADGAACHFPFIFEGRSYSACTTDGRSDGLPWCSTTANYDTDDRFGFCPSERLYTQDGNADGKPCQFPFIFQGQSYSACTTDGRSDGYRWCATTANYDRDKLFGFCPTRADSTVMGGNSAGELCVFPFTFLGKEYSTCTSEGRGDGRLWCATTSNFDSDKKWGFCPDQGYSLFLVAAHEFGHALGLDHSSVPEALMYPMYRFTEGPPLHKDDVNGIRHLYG
Sequence of MMP3 (chain, as listed by the source): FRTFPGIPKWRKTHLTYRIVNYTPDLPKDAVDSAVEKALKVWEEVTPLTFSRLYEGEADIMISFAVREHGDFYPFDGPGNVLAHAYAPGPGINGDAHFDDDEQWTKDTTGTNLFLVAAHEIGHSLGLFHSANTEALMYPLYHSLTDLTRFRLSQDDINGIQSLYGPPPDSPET
Sequence of HPN (chain, as listed by the source): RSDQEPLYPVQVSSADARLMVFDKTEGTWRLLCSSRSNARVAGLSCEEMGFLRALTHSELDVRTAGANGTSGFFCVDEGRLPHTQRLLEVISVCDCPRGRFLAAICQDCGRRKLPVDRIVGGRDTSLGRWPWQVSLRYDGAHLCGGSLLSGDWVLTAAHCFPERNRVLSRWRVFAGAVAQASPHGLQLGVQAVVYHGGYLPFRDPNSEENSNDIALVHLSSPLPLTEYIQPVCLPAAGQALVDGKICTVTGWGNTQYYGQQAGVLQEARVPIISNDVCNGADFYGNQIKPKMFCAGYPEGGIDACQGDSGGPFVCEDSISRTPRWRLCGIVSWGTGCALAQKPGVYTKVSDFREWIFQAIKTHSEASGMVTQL
Sequence of MMP10 (chain, as listed by the source): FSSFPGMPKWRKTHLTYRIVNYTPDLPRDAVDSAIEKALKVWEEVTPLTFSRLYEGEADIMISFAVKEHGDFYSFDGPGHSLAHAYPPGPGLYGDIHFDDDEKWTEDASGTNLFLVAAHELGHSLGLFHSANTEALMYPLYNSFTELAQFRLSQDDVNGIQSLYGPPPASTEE

Consider uPA, for which the substrate cleavage assay entry with PB2 is “uPA substrate, expressed by PC3”. Besides, in the data set with PEG-T39-Q, the “Top hit (cleavage of PEG-coupled FRET substrate by recombinant proteases)” value (“Top hit” for short) was “uPA”; the substrate cleavage entry is “selectively cleaved by MMP13 and uPA”; the “substrate cleavage in vitro” value was “in vitro, these substrates are cleaved by proteases overexpressed in PC3 cells, MMP13 and uPA”.

Take MMP9: the “Top hit” value with PEG-T1-Q, in the data set with PEG-T3-Q and in the data set on PEG-T7-Q was “MMP9” each time.

Turning to MMP3, the “Top hit” value with PEG-T43-Q is “MMP3”. For the same substance, the “Second hit (cleavage of PEG-coupled FRET substrate by recombinant proteases)” value (“Second hit” below) in the data set with PEG-T56-Q is listed as “MMP3”.

In the case of KLK3, the “Second hit” value in the data set on PEG-T2-Q and in the data set on PEG-T51-Q was “KLK3” throughout.

As to MMP13, in the data set with PEG-T24-Q, the “Top hit” value was “MMP13”; the substrate cleavage entry is “selectively cleaved by MMP13 and uPA”; the “substrate cleavage in vitro” value is “in vitro, these substrates are cleaved by proteases overexpressed in PC3 cells, MMP13 and uPA”. Further, the “Second hit” value with PEG-T54-Q is listed as “MMP13”. In the data set on SB14, the substrate cleavage assay entry is “MMP13 substrate, expressed by PC3”.

HPN: the “Top hit” value in the data set on PEG-T48-Q and in the data set on PEG-T58-Q was “HPN” in each case.

On to KLK2, for which the “Top hit” value in the data set with PEG-T2-Q and in the data set on PEG-T38-Q was “KLK2” each time. Also, the “Second hit” value in the data set on PEG-T48-Q is “KLK2”.

Take MMP10: in the data set with PEG-T56-Q, the “Top hit” value is “MMP10”.
